Read-outs that look alike come from different tables or passages of the source.
Tests used:
Experiment in all cases: native gel or EMSA
[1] = molecular target: PduA* (PduA with a C-terminal 23 residue extension) (Salmonella typhimurium LT2)
[2] = molecular target: PduA*(A63R) (Salmonella typhimurium LT2)
[3] = molecular target: PduA* (PduA with a C-terminal 23 residue extension) (Salmonella typhimurium LT2); remark: listed apart in the source

**Q.** “PduA* (PduA with a C-terminal 23 residue extension) (natural protein)” was tested. Which stoichiometry N [1] did it give?
**A.** Its stoichiometry N is 3 hexamers.

**Q.** How did the stoichiometry N [2] turn out when PduA*(A63R) (natural protein) was run?
**A.** The stoichiometry N was 3 hexamers.

B1: PduL (enzyme)
chain: MDKQQLETTVTKVLDEMRERPIPLGISNRHIHLCAEDYDRLFPNHPISEKKELLQPGQYAADQTVTLVGPKGQLKNVRLLGPLRSTSQVEISRTDARTLGIAAPLRMSGSIEGTPGVRLISPFAELDLASGVIVAQRHIHMSPLDALILRVSHGDKVSVAINGDERRLIFDNVAVRVSPDMRLEMHIDTDEANAAGADNPQAFATLVSPR
**Q.** How did the stoichiometry N [3] turn out when B1 was run?
**A.** The stoichiometry N was 1.

**Q.** And the stoichiometry N (PduL dimers per PduA trimer of hexamers) [3]?
**A.** The stoichiometry N (PduL dimers per PduA trimer of hexamers) was 3.

From paper doi:10.1101/2022.12.30.522206
